The values below are quoted from earlier work in publication PMC3686100.

A word on the Kd: it is the concentration at which binding is half-saturated.

The target in the data set is ClpP (Escherichia coli) (UniProt P0A6G7).
Chain of UniProt P0A6G7 (P0A6G7 15-207): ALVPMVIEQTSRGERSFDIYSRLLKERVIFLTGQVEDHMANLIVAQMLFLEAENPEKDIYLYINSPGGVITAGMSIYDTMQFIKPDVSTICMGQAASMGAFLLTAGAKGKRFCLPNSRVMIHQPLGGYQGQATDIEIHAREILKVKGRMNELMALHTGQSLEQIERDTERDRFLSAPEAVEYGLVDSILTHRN

Consider ClpX (from UniProt P0A6H1), for which the Kd is 90 nM.
